Data reported in PMC2728291 (Journal of molecular biology, 2009).

Target: TEM-1 β-lactamase (UniProt P62593 24-286)
Experiment: enzyme inhibition assay

TEM-1 β-lactamase, sequence (P62593 24-286): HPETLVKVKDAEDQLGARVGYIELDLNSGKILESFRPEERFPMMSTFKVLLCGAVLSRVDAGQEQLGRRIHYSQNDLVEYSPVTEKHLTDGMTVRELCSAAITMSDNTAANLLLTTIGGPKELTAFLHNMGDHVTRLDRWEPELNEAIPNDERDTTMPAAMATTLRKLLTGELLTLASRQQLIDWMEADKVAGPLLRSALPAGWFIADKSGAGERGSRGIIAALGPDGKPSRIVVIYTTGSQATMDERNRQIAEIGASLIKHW

Row | Binder | Ki [nM]
1 | BLIP Asp49Ser mutant (natural protein) AGVMTGAKFTQIQFGMTRQQVLDIAGAENCETGGSFGDSIHCRGHAAGSYYAYATFGFTSAAADAKVDSKSQEKLLAPSAPTLTLAKFNQVTVGMTRAQVLATVGQGSCTTWSEYYPAYPSTAGVTLSLSCFDVDGYSSTGFYRGSAHLWFTDGVLQGKRQWDLV | 16
2 | BLIP Glu73Tyr mutant (natural protein) AGVMTGAKFTQIQFGMTRQQVLDIAGAENCETGGSFGDSIHCRGHAAGDYYAYATFGFTSAAADAKVDSKSQYKLLAPSAPTLTLAKFNQVTVGMTRAQVLATVGQGSCTTWSEYYPAYPSTAGVTLSLSCFDVDGYSSTGFYRGSAHLWFTDGVLQGKRQWDLV | 3.7
3 | BLIP Glu31Gln mutant (natural protein) AGVMTGAKFTQIQFGMTRQQVLDIAGAENCQTGGSFGDSIHCRGHAAGDYYAYATFGFTSAAADAKVDSKSQEKLLAPSAPTLTLAKFNQVTVGMTRAQVLATVGQGSCTTWSEYYPAYPSTAGVTLSLSCFDVDGYSSTGFYRGSAHLWFTDGVLQGKRQWDLV | 1.4
4 | BLIP Phe142Gly mutant (natural protein) AGVMTGAKFTQIQFGMTRQQVLDIAGAENCETGGSFGDSIHCRGHAAGDYYAYATFGFTSAAADAKVDSKSQEKLLAPSAPTLTLAKFNQVTVGMTRAQVLATVGQGSCTTWSEYYPAYPSTAGVTLSLSCFDVDGYSSTGGYRGSAHLWFTDGVLQGKRQWDLV | 12
5 | BLIP Trp112Arg mutant (natural protein) AGVMTGAKFTQIQFGMTRQQVLDIAGAENCETGGSFGDSIHCRGHAAGDYYAYATFGFTSAAADAKVDSKSQEKLLAPSAPTLTLAKFNQVTVGMTRAQVLATVGQGSCTTRSEYYPAYPSTAGVTLSLSCFDVDGYSSTGFYRGSAHLWFTDGVLQGKRQWDLV | 3.9
